Measurements as given in patent publication US12559560B2, “Antibody-based compositions for targeting tropomyosin receptor kinase B (TrkB) isoforms” (Fred Hutchinson Cancer Center, priority 2020, dated 2026).

Key:
Type in all cases: binding
[1] = target: T1, full length TrkB.T1 protein (Mus musculus, UniProt P15209); assay: Wes capillary Western blot of mouse brain detergent extracts (antibody screening Stage 2); details: normal and KO mouse brain detergent extracts; monoclonal culture super diluted 1:2
T1 construct: mouse brain lysates from TrkB.T1^+/+ and TrkB.T1^−/− mice were prepared by mechanical disruption; from tissue; host or cells: mouse brain (TrkB.T1+/+ wild type; TrkB.T1-/- as negative control)
Protocol: Wes™ capillary electrophoresis for antibody development. Protein Simple Wes™ was used at two stages of antibody screening: Stage 1, selecting immunized mice to advance for hybridoma generation, and Stage 2, for validation of monoclonal antibodies that Western blot full-length TrkB.T1 protein in murine brain detergent extracts. Briefly, mouse brain lysates from TrkB.T1^+/+ and TrkB.T1^−/− mice were prepared by mechanical disruption (Dounce tissue homogenizer, Kimble Chase) in RIPA lysis buffer (Pierce™ RIPA Lysis and Extraction Buffer, ThermoScientific™) containing HALT™ Protease and Phosphatase Inhibitor Cocktail and EDTA (ThermoScientific™) and normalized to 2 μg/μl total protein via Bradford Protein Assay. Approximately 8-10 ng total brain extract protein was loaded into the Protein Simple Capillary WES system for Western analysis following Protein Simple recommended methods (Rustandi, R. R., et al. Applications of an automated and quantitative CE-based size and charge western blot for therapeutic proteins and vaccines. Methods Mol. Biol. 1466, 197-217 (2016)). Mice with antisera (1:2500 dilution in PBS and Antibody Diluent (Protein Simple)) that identified a positive band at 90-100 kDa for the TrkB.T1 protein were advanced forward for final boosting, splenectomy, and hybridoma generation (FIG. 3B). […]

TrkB.T1 [2] = target: T2, TrkB.T1 (Mus musculus, UniProt P15209); assay: TrkB.T1 immunohistochemistry on mouse brain / mouse tumors
T2 construct: from tissue; host or cells: formalin-fixed paraffin-embedded mouse brain and RCAS/tv-a mouse gliomas
Protocol: (§1) Antibody validation phase—large batch IHC. Four-μm sections of a multi-tissue block containing human brain, mouse brain, TrkB.T1^−/− mouse brain, a cell pellet over-expressing TrkB.T1 and a cell pellet without TrkB.T1 were cut and stained with the Leica Bond Rx (Leica Biosystems, Buffalo Grove, IL). Slides were pretreated with H2 antigen retrieval buffer for 20 min. Endogenous peroxidase was blocked with 3% hydrogen peroxide for 5 min. A TCT protein block was applied for 10 min (0.05 M Tris, 0.15 M NaCl, 0.25% Casein, 0.1% Tween 20, pH 7.6). Supernatants from multiple boosting and pre-/post-fusion samples, along with antibody clone D12 were used at 1:20 and applied to the tissue for 30 min. The antibody was then detected using Leica Power Vision HRP Mouse specific polymer (Leica Biosystems catalog #PV6114) for 12 min and staining was visualized with Refine DAB (Leica Biosystems catalog #D59800) and a hematoxylin counterstain was used (Hematoxylin 50% in H2O from Biocare catalog #NM-HEM-M). Mouse isotype control slides were included for each run (Jackson ImmunoResearch Laboratories) at 2 μg/ml. Digital images of IHC-stained slides were obtained at ×40 magnification (0.25 μm/pixel) using a whole slide scanner (ScanScope AT Turbo, Aperio) fitted with a 20×/0.75 Plan Apo objective lens and ×2 magnification changer (Olympus, Center Valley, Pa., USA). […]

TrkB.T1 [3] = target: T3, TrkB.T1 (Homo sapiens, UniProt Q16620); assay: TrkB.T1 immunohistochemistry on human brain
T3 construct: To determine endogenous localization of TrkB.T1 in human brain, a monoclonal antibody; from tissue; host or cells: normal human brain (rapid autopsy, FFPE sections)
Protocol: as §1

T2 sequence (P15209 32-476 isoform P15209-2 limits assumed): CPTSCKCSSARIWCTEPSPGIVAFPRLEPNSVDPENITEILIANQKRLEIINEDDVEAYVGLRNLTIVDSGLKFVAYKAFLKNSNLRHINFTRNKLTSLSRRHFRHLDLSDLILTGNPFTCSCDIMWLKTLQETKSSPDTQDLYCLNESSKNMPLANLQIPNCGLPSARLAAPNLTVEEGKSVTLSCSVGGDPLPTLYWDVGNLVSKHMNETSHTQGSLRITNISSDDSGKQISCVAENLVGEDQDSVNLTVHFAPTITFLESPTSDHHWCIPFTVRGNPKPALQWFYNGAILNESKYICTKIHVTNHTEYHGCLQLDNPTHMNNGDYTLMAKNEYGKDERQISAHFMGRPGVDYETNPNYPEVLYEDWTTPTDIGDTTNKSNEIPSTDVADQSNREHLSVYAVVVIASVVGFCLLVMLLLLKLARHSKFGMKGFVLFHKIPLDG
T3 sequence (Q16620 32-477 isoform Q16620-2 limits assumed): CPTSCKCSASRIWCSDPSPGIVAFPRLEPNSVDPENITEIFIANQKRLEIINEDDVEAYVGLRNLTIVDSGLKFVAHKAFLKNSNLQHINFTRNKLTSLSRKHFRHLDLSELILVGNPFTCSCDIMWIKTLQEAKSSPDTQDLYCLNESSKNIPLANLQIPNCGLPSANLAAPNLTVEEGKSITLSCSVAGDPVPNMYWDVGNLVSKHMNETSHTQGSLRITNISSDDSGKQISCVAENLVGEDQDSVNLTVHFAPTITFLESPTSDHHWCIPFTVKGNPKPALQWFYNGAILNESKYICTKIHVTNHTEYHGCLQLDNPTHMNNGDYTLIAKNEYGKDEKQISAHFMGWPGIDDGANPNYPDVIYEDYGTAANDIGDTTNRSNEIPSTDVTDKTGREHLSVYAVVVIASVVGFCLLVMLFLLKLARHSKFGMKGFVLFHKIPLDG
T1 sequence (P15209 32-476 isoform P15209-2 limits assumed): as the sequence (P15209 32-476 isoform P15209-2 limits assumed) above

B1: Clone FH1D12: Murine monoclonal antibody to the TrkB.T1 C-terminal peptide … (SEQ ID NO:1), raised in TrkB.T1 null mice (antibody, V domains shown)
VL: QTVVTQESALTTSPGETVTLTCRSSTGAVTTSNYANWVQEKPDHLFTGLIGGINNRAPGVPARFSGSLIGDKAVLTITGAQTEDEAIYFCALWYSNHWVFGGGTKLTVL
VH: VQLQQSGPELARPWASVKISCQAFYTFSRGIHFDIRNTMYWIQWVKQRPGQGLEWIGAIYPGNGDPTYSQNFKDKATLTADKSSNTAYMQLSSLTSEDSAVYYCARYDYGGGFTYWGQGTLVTVSAGS
[1]
  Western blotting activity (full length TrkB.T1 protein): positive
TrkB.T1 [2]; TrkB.T1-/- knockout mouse brain (specificity control)
  staining in TrkB.T1-/- knockout mouse brain: absent
TrkB.T1 [2]; wild-type mouse brain
  immunostaining in wild-type (WT) mouse brain: positive
TrkB.T1 [3]
  immunostaining in human brain: positive
